By Kd is commonly meant the concentration at which binding is half-saturated.

Experiment in all cases: SPR
In general terms: In SPR one partner is held on a chip, and binding of the other changes the refractive index at the surface.

Experiment [1] has as its target FcγRIIIa-158V-CHO^WT (soluble FcγRIIIa, allotype 158V, from wild-type CHO) (human).
Experiment [2] concerns the target FcγRIIIa-158F-CHO^WT (soluble FcγRIIIa, allotype 158F, from wild-type CHO) (human) (UniProt P08637).
The target in experiment [3] is FcγRIIIa-158F-G2FS(2-3) (human) (UniProt P08637).
Experiment [4] addresses FcγRIIIa-158V-Monoantennae (human).
Experiment [5] concerns the target biotinylated, recombinant, human FcγRIIIa-158V from SinoBiological (human).
In experiment [6] the target is FcγRIIIa-158F-Afucosylated (human) (UniProt P08637).
For experiment [7], the target named is FcγRIIIa-158F-Monoantennae (human) (UniProt P08637).
For experiment [8], the target named is FcγRIIIa-158F-HEK^WT (human) (UniProt P08637).
In experiment [9] the target is FcγRIIIa-158V-G2FS(2-3) (human).
For experiment [10], the target named is FcγRIIIa-158V-Oligomannose (human).
Experiment [11] deals with FcγRIIIa-158V-HEK^WT (human).
Experiment [12] addresses FcγRIIIa-158V-Hybrid (human).
The target in experiment [13] is FcγRIIIa-158V-Afucosylated (human).
The target of experiment [14] is FcγRIIIa-158F-Hybrid (human) (UniProt P08637).
The target in experiment [15] is FcγRIIIa-158F-G2FS(2-6) (human) (UniProt P08637).
Experiment [16] has as its target FcγRIIIa-158V-G2FS(2-6) (human).
The target in experiment [17] is biotinylated, recombinant, human FcγRIIIa-158F from SinoBiological (human) (UniProt P08637).
The target in experiment [18] is FcγRIIIa-158V, FcγRIIIa-Hybrid (human).
Experiment [19] has as its target FcγRIIIa-158V, FcγRIIIa-Monoantennae (human).
Experiment [20] deals with FcγRIIIa-158V, FcγRIIIa-CHO^WT (human).
Experiment [21] addresses FcγRIIIa-158V, FcγRIIIa-Oligomannose (human).
Experiment [22] addresses FcγRIIIa-158V, FcγRIIIa-G2FS(2-3) (human).
For experiment [23], the target named is FcγRIIIa-158V, FcγRIIIa-G2FS(2-6) (human).
Experiment [24] addresses FcγRIIIa-158V, FcγRIIIa-Afucosylated (human).
The target of experiment [25] is FcγRIIIa-158V, FcγRIIIa-HEK^WT (human).
Chain of FcγRIIIa-158V, FcγRIIIa-HEK^WT (human) (P08637 17-208 F176V): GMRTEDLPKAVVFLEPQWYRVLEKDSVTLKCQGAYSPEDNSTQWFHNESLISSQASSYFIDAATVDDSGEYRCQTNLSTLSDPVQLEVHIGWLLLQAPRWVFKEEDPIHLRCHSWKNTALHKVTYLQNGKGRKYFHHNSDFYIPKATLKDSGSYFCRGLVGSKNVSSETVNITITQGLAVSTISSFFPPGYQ

Chain of FcγRIIIa-158F-HEK^WT (human) (P08637 17-208): as the sequence (P08637 17-208 F176V) above, with V160F counted along it
Chain of FcγRIIIa-158F-CHO^WT (soluble FcγRIIIa, allotype 158F, from wild-type CHO) (human) (P08637 17-208): as the sequence (P08637 17-208 F176V) above, with V160F counted along it
Chain of FcγRIIIa-158F-G2FS(2-3) (human) (P08637 17-208): as the sequence (P08637 17-208 F176V) above, with V160F counted along it
Chain of FcγRIIIa-158F-Monoantennae (human) (P08637 17-208): as the sequence (P08637 17-208 F176V) above, with V160F counted along it
Chain of biotinylated, recombinant, human FcγRIIIa-158F from SinoBiological (human) (P08637 17-208): as the sequence (P08637 17-208 F176V) above, with V160F counted along it
Chain of FcγRIIIa-158F-Hybrid (human) (P08637 17-208): as the sequence (P08637 17-208 F176V) above, with V160F counted along it
Chain of FcγRIIIa-158F-Afucosylated (human) (P08637 17-208): as the sequence (P08637 17-208 F176V) above, with V160F counted along it
Chain of FcγRIIIa-158V, FcγRIIIa-G2FS(2-6) (human) (P08637 17-208 F176V): as the sequence (P08637 17-208 F176V) above
Chain of FcγRIIIa-158V, FcγRIIIa-Hybrid (human) (P08637 17-208 F176V): as above
Chain of FcγRIIIa-158V, FcγRIIIa-Monoantennae (human) (P08637 17-208 F176V): as above
Chain of FcγRIIIa-158V, FcγRIIIa-G2FS(2-3) (human) (P08637 17-208 F176V): as above
Chain of FcγRIIIa-158V, FcγRIIIa-Afucosylated (human) (P08637 17-208 F176V): as above
Chain of FcγRIIIa-158V, FcγRIIIa-Oligomannose (human) (P08637 17-208 F176V): as above
Chain of FcγRIIIa-158V, FcγRIIIa-CHO^WT (human) (P08637 17-208 F176V): as above
Chain of FcγRIIIa-158F-G2FS(2-6) (human) (P08637 17-208): as the sequence (P08637 17-208 F176V) above, with V160F counted along it

Consider “IgG1-CHO^WT (anti-rabies human IgG1 mAb SO57 from wild-type CHO) (antibody)”, for which the Kd stood at 489 nM in experiment [1]; 3490 nM in experiment [2]; 2540 nM in [3]; 489 nM in experiment [4]; 440 nM in experiment [5]; 2330 nM in [6]. In addition, the Kd in experiment [7] was determined as 2350 nM; in [8], 2160 nM; in experiment [9], 624 nM; in [10], 242 nM; in [11], 440 nM; in experiment [12], 456 nM. Also, the Kd was determined as 464 nM in experiment [13]; 2220 nM in experiment [14]; 1680 nM in experiment [15]; 443 nM in [16]; 1780 nM in experiment [17].
As to IgG1-G0 (mAb SO57) (antibody), the Kd in experiment [1] was determined as 36.9 nM; in experiment [2] it was 213 nM; in [3] it was 184 nM; in [4] it was 37.6 nM; in [5], 32.9 nM; in experiment [6] it was 164 nM. Moreover, the Kd in experiment [7] is 170 nM; in experiment [10] it was 14.2 nM; in experiment [12] it was 33 nM; in experiment [13], 29.6 nM; in experiment [16], 29.7 nM.
On to “IgG1-G0 (mAb SO57, afucosylated, agalactosylated)”, for which the Kd in experiment [18] is 33 nM; in experiment [19], 38 nM; in experiment [20], 37 nM; in experiment [21] it was 14 nM; in experiment [22], 38 nM.
Consider IgG1-G2F (mAb SO57) (antibody), for which the Kd was 278 nM in experiment [1]; 1860 nM in experiment [2]; 1370 nM in [3]; 305 nM in experiment [4]; 1210 nM in experiment [6]; 1270 nM in [7]. For the same substance, the Kd in [8] stood at 1150 nM; in [9], 377 nM; in experiment [11], 263 nM; in experiment [12], 297 nM; in [13] it was 270 nM; in experiment [14], 1210 nM. In addition, the values for the Kd in experiment [15], in experiment [16] and in experiment [17] were 851 nM, 262 nM and 965 nM, respectively.
In the case of IgG1-G2F (mAb SO57, galactosylated), the Kd is 260 nM in experiment [23]; 300 nM in experiment [18]; 300 nM in experiment [19]; 270 nM in experiment [24]; 380 nM in experiment [22]; 260 nM in [25].
In the case of “IgG1-G2FS(2-3) (mAb SO57, α2-3 linked Sia)”, the Kd in [23] came out at 260 nM; in experiment [18], 300 nM; in experiment [19], 310 nM; in [20], 290 nM; in [25], 260 nM.
For IgG1-G2FS(2-6) (mAb SO57) (antibody), the Kd in experiment [2] came to 1860 nM; in experiment [3], 1240 nM; in experiment [4], 289 nM; in [5] it was 275 nM; in experiment [6], 964 nM; in [7], 1110 nM. Moreover, the Kd was 1050 nM in experiment [8]; 398 nM in experiment [9]; 145 nM in experiment [10]; 261 nM in [11]; 281 nM in experiment [12]; 260 nM in experiment [13]. Besides, the equilibrium dissociation constant (Kd) in experiment [14] was determined as 1110 nM.
With “IgG1-G2FS(2-6) (mAb SO57, α2-6 linked Sia)”, the Kd in [19] came out at 290 nM; in [24], 260 nM; in experiment [22] it was 400 nM; in [25], 260 nM.
On to IgG1-Hybrid (mAb SO57) (antibody), for which the Kd in [1] amounted to 869 nM; in [2], 4610 nM; in experiment [4] it was 426 nM; in experiment [5], 598 nM; in [6], 2210 nM; in [7], 2200 nM. The dissociation constant (Kd) in [8] was determined as 2510 nM; in [9], 1070 nM; in experiment [10] it was 399 nM; in [11] it was 693 nM; in [12], 471 nM; in experiment [13], 808 nM. In addition, the figures for the Kd in experiment [14], in experiment [16] and in experiment [17] were 2660 nM, 573 nM and 2230 nM, respectively.
Regarding IgG1-Hybrid (mAb SO57, hybrid N-glycan), the Kd stood at 470 nM in experiment [18]; 810 nM in experiment [24]; 870 nM in [20]; 400 nM in experiment [21]; 1100 nM in [22]; 690 nM in [25].
On to IgG1-Monoantennae (mAb SO57) (antibody), for which the Kd was determined as 635 nM in [1]; 731 nM in experiment [4]; 761 nM in experiment [5]; 935 nM in experiment [9]; 375 nM in [10]; 643 nM in [11]. For the same substance, the Kd in [12] is 742 nM; in [13] it was 698 nM; in experiment [16] it was 755 nM; in [17], 3260 nM.
For “IgG1-Monoantennae (mAb SO57, monoantennary N-glycan)”, the Kd in [23] turned out to be 750 nM; in experiment [18], 740 nM; in experiment [19] it was 730 nM; in experiment [24], 700 nM; in [20], 640 nM; in [21] it was 380 nM. The results for the Kd in experiment [22] and in experiment [25] were 930 nM and 640 nM, respectively.
For the substance IgG1-Oligomannose (mAb SO57) (antibody), the Kd in experiment [2] turned out to be 582 nM; in experiment [3] it was 480 nM; in experiment [4], 109 nM; in experiment [5], 93.2 nM; in [6] it was 406 nM; in experiment [7], 428 nM. Moreover, the Kd in [8] turned out to be 383 nM; in experiment [9], 123 nM; in experiment [10], 37.6 nM; in experiment [11] it was 87.2 nM; in experiment [12], 104 nM; in experiment [13], 88.3 nM. Moreover, the Kd in [14] was found to be 405 nM; in experiment [16], 79.6 nM.
For IgG1-Oligomannose (mAb SO57, Man5), the Kd in [23] is 80 nM; in experiment [24], 88 nM; in [21], 38 nM; in experiment [25], 87 nM.

For the origin of these results see PMC9524020.
